Test results: PMC3113324, “AKAP5 and AKAP12 Form Homo-oligomers” (Journal of Molecular Signaling, 2011)

B1: His-tagged AKAP12 (1-840) (domain or fragment, human, UniProt Q02952 1-840, looked up)
chain: MGAGSSTEQRSPEQPPEGSSTPAEPEPSGGGPSAEAAPDTTADPAIAASDPATKLLQKNGQLSTINGVAEQDELSLQEGDLNGQKGALNGQGALNSQEEEEVIVTEVGQRDSEDVSKRDSDKEMATKSAVVHDITDDGQEETPEIIEQIPSSESNLEELTQPTESQANDIGFKKVFKFVGFKFTVKKDKTEKPDTVQLLTVKKDEGEGAAGAGDHKDPSLGAGEAASKESEPKQSTEKPEETLKREQSHAEISPPAESGQAVEECKEEGEEKQEKEPSKSAESPTSPVTSETGSTFKKFFTQGWAGWRKKTSFRKPKEDEVEASEKKKEQEPEKVDTEEDGKAEVASEKLTASEQAHPQEPAESAHEPRLSAEYEKVELPSEEQVSGSQGPSEEKPAPLATEVFDEKIEVHQEEVVAEVHVSTVEERTEEQKTEVEETAGSVPAEELVEMDAEPQEAEPAKELVKLKETCVSGEDPTQGADLSPDEKVLSKPPEGVVSEVEMLSSQERMKVQGSPLKKLFTSTGLKKLSGKKQKGKRGGGDEESGEHTQVPADSPDSQEEQKGESSASSPEEPEEITCLEKGLAEVQQDGEAEEGATSDGEKKREGVTPWASFKKMVTPKKRVRRPSESDKEDELDKVKSATLSSTESTASEMQEEMKGSVEEPKPEEPKRKVDTSVSWEALICVGSSKKRARRGSSSDEEGGPKAMGGDHQKADEAGKDKETGTDGILAGSQEHDPGQGSSSPEQAGSPTEGEGVSTWESFKRLVTPRKKSKSKLEEKSEDSIAGSGVEHSTPDTEPGKEESWVSIKKFIPGRRKKRPDGKQEQAPVEDAGPTGANEDD
notes: AKAP12, human, N-terminal fragment, residues 1-840, in pET28b(+); also called N-terminal (1-840) fragment of AKAP12; source: E. coli, purified (Ni-NTA)
B2: His-tagged AKAP12 (840-1782) (domain or fragment, human, UniProt Q02952 840-1782, looked up)
chain: DSDVPAVVPLSEYDAVEREKMEAQQAQKSAEQPEQKAATEVSKELSESQVHMMAAAVADGTRAATIIEERSPSWISASVTEPLEQVEAEAALLTEEVLEREVIAEEEPPTVTEPLPENREARGDTVVSEAELTPEAVTAAETAGPLGAEEGTEASAAEETTEMVSAVSQLTDSPDTTEEATPVQEVEGGVPDIEEQERRTQEVLQAVAEKVKEESQLPGTGGPEDVLQPVQRAEAERPEEQAEASGLKKETDVVLKVDAQEAKTEPFTQGKVVGQTTPESFEKAPQVTESIESSELVTTCQAETLAGVKSQEMVMEQAIPPDSVETPTDSETDGSTPVADFDAPGTTQKDEIVEIHEENEVASGTQSGGTEAEAVPAQKERPPAPSSFVFQEETKEQSKMEDTLEHTDKEVSVETVSILSKTEGTQEADQYADEKTKDVPFFEGLEGSIDTGITVSREKVTEVALKGEGTEEAECKKDDALELQSHAKSPPSPVEREMVVQVEREKTEAEPTHVNEEKLEHETAVTVSEEVSKQLLQTVNVPIIDGAKEVSSLEGSPPPCLGQEEAVCTKIQVQSSEASFTLTAAAEEEKVLGETANILETGETLEPAGAHLVLEEKSSEKNEDFAAHPGEDAVPTGPDCQAKSTPVIVSATTKKGLSSDLEGEKTTSLKWKSDEVDEQVACQEVKVSVAIEDLEPENGILELETKSSKLVQNIIQTAVDQFVRTEETATEMLTSELQTQAHVIKADSQDAGQETEKEGEEPQASAQDETPITSAKEESESTAVGQAHSDISKDMSEASEKTMTVEVEGSTVNDQQLEEVVLPSEEEGGGAGTKSVPEDDGHALLAERIEKSLVEPKEDEKGDDVDDPENQNSALADTDASGGLTKESPDTNGPKQKEKEDAQEVELQEGKVHSESDKAITPQAQEELQKQERESAKSELTES
notes: AKAP12, human, C-terminal fragment, residues 840-1782, in pET28b(+); also called C-terminal (840-1782) fragment of AKAP12; source: E. coli, purified (Ni-NTA)

Biological target: the molecule itself
Assay: SDS-PAGE (SDS-resistant oligomers); purified His-tagged proteins resolved on SDS-PAGE without urea; Coomassie staining and immunoblotting

Row | Protein | stoichiometry N
1 | B1 | 2
2 | B2 | 2
